Assay results published in patent publication US7638295B2, “Assays for identifying modulators of the hydroxylation of ankyrin repeat proteins by 2-oxoglutarate dependent oxygenase and methods of using the same” (priority 2004, dated 2009).

Experiments:
[1] = target: T1, FIH (Homo sapiens, UniProt Q9NWT6); test: FIH assay: decarboxylation of radiolabelled 2OG stimulated by substrate; format: biochemical; conditions: for Activity + FIH (relative to synthetic HIF1alphaCAD): ankyrin peptide substrates, CAD standard peptide = 100; for % activity relative to GST HIF-1α 786-826: substrate incubated with FIH, ascorbate, 2OG, Fe, catalase, 50 mM Tris-HCl pH 7.5, 37° C., 20 minutes; for Stimulation of decarboxylation of 2OG by substrate: recombinant FIH (>95% pure) incubated with each peptide
T1 construct: made in house
Protocol: The peptides shown in Table 1 were tested as potential substrates with purified FIH. The proposed sites of asparaginyl hydroxylation are highlighted in the Table.
In addition p105 ARD and IkappaB-alpha were also assayed as substrates. The substrates were assayed for decarboxylation of 2OG using radiolabelled 2OG as reported in Hewitson et al., J. Biol. Chem. (2002) 277 26351-26355. FIH was incubated with […] of each substrate together with ascorbate, 2OG, Fe and catalase in 50 mM Tris-HCl, pH 7.5 at 37° C. for 20 minutes.
Highly purified (>95% pure) recombinant FIH was incubated individually with each of the p105, IkappaB-alpha and FEM-1 peptides as potential substrates using an assay that measures decarboxylation of 2OG. […] Mutation of the proposed asparaginyl residue to be hydroxylated by FIH in p105 ARD to an alanine residue led to a substantial decrease in 2OG turnover. Incubation of FIH with IkappaB-alpha under standard assay conditions also stimulated turnover to a similar extent as observed for p105 ARD (Table 2).

[2] = target: T1, FIH; test: LC-MS analysis of peptide substrates after incubation with FIH; format: biochemical; conditions: after incubation with FIH under standard assay conditions
Protocol: A Jupiter C4 HPLC column (15 cm×4.6 mm) was used to purify the substrate peptides following incubation with FIH using a linear gradient of 5-95% acetonitrile/0.05% formic acid at a flow rate of 1 ml/min. The eluate from the column was analysed by a MICROMASS™ ZMD quadrupole mass spectrometer in positive mode.
(§1) To check for direct peptide substrate hydroxylation, assay mixtures with each of the peptide substrates were analysed by both NMR and LC-MS.

[3] = test system: 2-OG dependent oxygenases; test: Assays in which 3-fluoro 2-OG replaces 2-OG as co-substrate; format: biochemical; conditions: compound replaces 2-OG under analogous conditions
From the text: [drawing 5] where each R^1, which are the same or different, is as defined above; R^11 represents OH or R^10NH where R^10 is HO, R^1CO or HOOC(X)x wherein R^11 is as defined above, x is 0 or 1 and X is R^1R^1C wherein each R^1, which are the same or different, is as defined above; or R^10 is an amino acid residue H2N(R^1R^1C)CO— wherein each R^1, which are the same or different, is as defined above; n is 1 or 2 and R^12 is H or straight or branched C1 to C6 alkyl; or a salt thereof. Typically X is CH2 or CHOH. Another aspect of the invention concerns analogues of 2-OG that act as improved (relative to 2-OG) co-substrates for the 2-OG dependent oxygenases. Such a compound is 3-fluoro 2-OG.

[4] = test system: 2-OG oxygenases; conditions: no test described in this patent; cited from earlier work
[5] = target: T1, FIH; test: 2D-NMR of peptides after incubation with FIH; format: biochemical; conditions: standard assay conditions
Protocol: Both the FEM-1 and IkappaB-alpha peptides (2 mg) were incubated with FIH under standard assay conditions. Peptides were purified from the assay mixture using a Jupiter C4 HPLC column (15 cm×4.6 mm) with a linear gradient of 5-95% acetonitrile. Peptides were lyophilised and then redissolved in neat ^2H2O containing 1,4-dioxan as the internal chemical shift reference (^1H 3.750, ^13C 67.80 p.p.m.). NMR spectra were obtained using a Bruker Avance DRX500 equipped with an inverse-broadband pulsed-field gradient probe.
as §1

[6] = target: T1, FIH; test: Tryptic digest and MALDI-TOF mass spectrometry after incubation with FIH; format: biochemical; conditions: incubated with FIH under standard assay conditions, then tryptic digestion; linear and reflectron mode
Protocol: For in-gel digests, gel pieces were incubated with […] in 20 mM ammonium bicarbonate and incubated at 37° C. for 16 hrs. For solution digests, after incubation with FIH under standard assay conditions, a 25 μM sample of substrate was removed from the assay, combined with 2.5 μM trypsin in 25 mM ammonium bicarbonate and incubated at room temperature for 8 hours.
Both in vitro and in vivo produced p105 samples were analysed using an Ettan™ MALDI-ToF Pro mass spectrometer in reflectron mode (Amersham Biosciences) with ANG III and hACTH peptides as internal standards. Tryptic fragments of in vitro produced IkappaB-alpha were analysed using a MALDI-TOF 2T mass spectrometer (MICROMASS™) in reflectron mode using Substance P, hACTH and insulin (B chain, oxidized) calibration standards.
Recombinant IκB-α was incubated with FIH under standard assay conditions followed by tryptic digestion. The resulting tryptic fragments were analysed using both linear and reflectron mode MALDI-TOF mass spectrometry.

T1 sequence (Q9NWT6 whole entry): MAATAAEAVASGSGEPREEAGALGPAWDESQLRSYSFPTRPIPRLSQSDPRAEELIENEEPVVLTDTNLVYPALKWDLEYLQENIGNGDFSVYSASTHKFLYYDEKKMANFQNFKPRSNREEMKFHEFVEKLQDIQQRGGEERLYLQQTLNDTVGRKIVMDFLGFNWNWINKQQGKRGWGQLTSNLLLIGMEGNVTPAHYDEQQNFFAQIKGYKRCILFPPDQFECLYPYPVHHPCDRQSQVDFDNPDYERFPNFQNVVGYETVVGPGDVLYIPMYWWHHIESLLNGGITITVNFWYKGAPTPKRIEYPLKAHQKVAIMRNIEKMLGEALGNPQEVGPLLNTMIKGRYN

Molecule | Activity + FIH (relative to synthetic HIF1alphaCAD) [1] | Hydroxylation of peptide observed by LC-MS analysis [2] | % activity relative to GST HIF-1α 786-826 [1] [%] | other results
O=C(O)CC(F)C(=O)C(=O)O (stereo not drawn) [3-fluoro 2-OG, 3-fluoro-2-oxoglutaric acid] |  |  |  | Level of asparagine hydroxylation as co-substrate compared with 2-OG [3]: higher level of asparagine hydroxylation
O=C(O)CC1CC(=O)N(O)C1=O (stereo not drawn) [Is52, (1-hydroxy-2,5-dioxo-pyrrolidin-3-yl) acetic acid] |  |  |  | Activity (in words) [4]: highly active
CAD: HIF C-terminal transactivation domain standard peptide DESGLPQLTSYDCEVNAPI (SEQ ID NO: 11) (listed as Homo sapiens) [reference compound] | 100 | Yes | 75 | 
Gankyrin/p28-II: fragment of Gankyrin/p28-II, RDEIVKALLGKGAQVNAVNQ (SEQ ID NO: 17) (listed as Homo sapiens) | 116 | Yes |  | 
IkBa 21 mer: fragment of IκB-α, YLGIVELLVSLGADVNAQEPC (SEQ ID NO: 1) (listed as Homo sapiens) |  | hydroxylated | 111 | Stimulation of decarboxylation of 2OG by substrate [1]: roughly equivalent to HIF-1α CAD
Myotrophin: fragment of Myotrophin, QLEILEFLLLKGADINAPDK (SEQ ID NO: 18) (listed as Homo sapiens) | 154 | Yes |  | 
IkappaB-alpha: recombinant IκB-α protein expressed in Escherichia coli from iκB-α/pGEX-2T construct (protein, UniProt P25963 1-317, looked up) NF-kappa-B inhibitor alpha: MFQAAERPQEWAMEGPRDGLKKERLLDDRHDSGLDSMKDEEYEQMVKELQEIRLEPQEVPRGSEPWKQQLTEDGDSFLHLAIIHEEKALTMEVIRQVKGDLAFLNFQNNLQQTPLHLAVITNQPEIAEALLGAGCDPELRDFRGNTPLHLACEQGCLASVGVLTQSCTTPHLHSILKATNYNGHTCLHLASIHGYLGIVELLVSLGADVNAQEPCNGRTALHLAVDLQNPDLVSLLLKCGADVNRVTYQGYSPYQLTWGRPSTRIQQQLGQLTLENLQMLPESEDEESYDTESEFTEFTEDELPYDDCVFGGQRLTL |  |  | 144 | Hydroxylation of tryptic fragment (MALDI-TOF) [6]: hydroxylation of the fragment
p105 ARD: ankyrin repeat domain of p105, amino acid residues 537-809 (SEQ ID NO: 22), GST tag cleaved (protein, listed as Homo sapiens) TAVQDENGDSVLHLAIIHLHSQLVRDLLEVTSGLISDDIINMRNDLYQTPLHLAVITKQEDVVEDLLRAGADLSLLDRLGNSVLHLAAKEGHDKVLSILLKHKKAALLLDHPNGDGLNAIHLAMMSNSLPCLLLLVAAGADVNAQEQKSGRTALHLAVEHDNISLAGCLLLEGDAHVDSTTYDGTTPLHIAAGRGSTRLAALLKAAGADPLVENFEPLYDLDDSWENAGEDEGVVPGTTPLDMATSWQVFDILNGKPYEPEFTSDDLLAQGDM |  |  | 164 | 
GST p105 ARD: ankyrin repeat domain of p105 (residues 537-809) downstream of glutathione S-transferase (protein, left off: a dimerising Fc or GST, ankyrin repeat domain of p105 (residues 537-809) downstream of glutathione S-transferase) AVQDENGDSVLHLAIIHLHSQLVRDLLEVTSGLISDDIINMRNDLYQTPLHLAVITKQEDVVEDLLRAGADLSLLDRLGNSVLHLAAKEGHDKVLSILLKHKKAALLLDHPNGDGLNAIHLAMMSNSLPCLLLLVAAGADVNAQEQKSGRTALHLAVEHDNISLAGCLLLEGDAHVDSTTYDGTTPLHIAAGRGSTRLAALLKAAGADPLVENFEPLYDLDDSWENAGEDEGVVPGTTPLDMATSWQVFDILNGKPYEPEFTSDDLLAQGDM |  |  | 129 | 

The next lines start with results.

Activity + FIH (relative to synthetic HIF1alphaCAD) [1] | Hydroxylation of peptide observed by LC-MS analysis [2] | % activity relative to GST HIF-1α 786-826 [1] [%] | Molecule | other results
27.8 | Yes |  | 2-5A-d-R: fragment of 2-5A-d-R, VEVLKILLDEMGADVNACDN (SEQ ID NO: 16) (listed as Homo sapiens) | 
 | hydroxylated | 89 | FEM-1 21 mer: fragment of FEM-1, NALVTKLLLDCGAEVNAVDNE (SEQ ID NO: 3) (listed as Homo sapiens) | Stimulation of decarboxylation of 2OG by substrate [1]: roughly equivalent to HIF-1α CAD; 2D-NMR spectra of peptide after incubation with FIH [5]: consistent with asparaginyl hydroxylation
168 | Yes |  | FGIF: fragment of FGIF, NTRVASFLLQHDADINAQTK (SEQ ID NO: 20) (listed as Homo sapiens) | 
107 | Yes |  | GABPbeta: fragment of GABPbeta, HASIVEVLLKHGADVNAKDM (SEQ ID NO: 14) (listed as Homo sapiens) | 
 |  | 100 | GST HIF-1α 786-826: glutathione-S-transferase tagged fragment of the HIF transactivation domains (residues 786-826) [reference compound] | 
122 | Yes |  | M110: fragment of M110, YTEVLKLLIQAGYDVNIKDY (SEQ ID NO: 19) (listed as Homo sapiens) | 
107 | Yes |  | Tankyrase 1/2: fragment of Tankyrase, NLEVAEYLLEHGADVNAQDK (SEQ ID NO: 15) (listed as Homo sapiens) | 
124 | Yes |  | p19-INK-4d: fragment of P19-INK4d, FLDTLKVLVEHGADVNVPDG (SEQ ID NO: 13) (listed as Homo sapiens) | 
 |  | 100 | p105 21 mer: fragment of p105, SLPCLLLLVAAGADVNAQEQK (SEQ ID NO: 2) (listed as Homo sapiens) | Stimulation of decarboxylation of 2OG by substrate [1]: roughly equivalent to HIF-1α CAD; 2D-NMR spectra of peptide after incubation with FIH [5]: consistent with asparaginyl hydroxylation
